Bridges are numbered along the chain shown (N, C = ends). [ ]: non-standard residue; d: D form. Phe(4-F) = N[C@@H](Cc1ccc(F)cc1)C(=O)O; 2Nal = N[C@@H](Cc1ccc2ccccc2c1)C(=O)O; Cit = NC(=O)NCCC[C@H](N)C(=O)O
Molecular target: human CXCR4 (human, UniProt P61073 1-352)
Experiment: cell-based or functional assay

Sequence of human CXCR4 (P61073 whole entry): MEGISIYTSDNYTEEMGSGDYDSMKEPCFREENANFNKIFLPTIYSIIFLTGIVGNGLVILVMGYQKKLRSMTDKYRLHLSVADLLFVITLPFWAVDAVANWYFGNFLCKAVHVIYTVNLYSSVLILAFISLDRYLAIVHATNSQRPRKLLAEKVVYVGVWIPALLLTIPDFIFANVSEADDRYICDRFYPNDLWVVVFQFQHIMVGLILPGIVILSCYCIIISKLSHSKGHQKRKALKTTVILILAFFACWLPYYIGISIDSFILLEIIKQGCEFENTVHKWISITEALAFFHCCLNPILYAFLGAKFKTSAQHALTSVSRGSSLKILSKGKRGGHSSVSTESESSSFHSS

IC50 (nM) Ca2+ assay (method 2) [nM]	IC50 (nM) Ca2+ assay (method 1) [nM]	Binder
11		cyclo(YR[Cit]CRG[dP]RR[2Nal]CYDK[dP]P) (disulfide 4-11; SMILES N=C(N)NCCC[C@@H]1NC(=O)[C@@H]2CSSC[C@H](NC(=O)[C@H](Cc3ccc4ccccc4c3)NC(=O)[C@H](CCCNC(=N)N)NC(=O)[C@H](CCCNC(=N)N)NC(=O)[C@H]3CCCN3C(=O)CNC1=O)C(=O)N[C@@H](Cc1ccc(O)cc1)C(=O)N[C@@H](CC(=O)O)C(=O)N[C@@H](CCCCN)C(=O)N1CCC[C@@H]1C(=O)N1CCC[C@H]1C(=O)N[C@@H](Cc1ccc(O)cc1)C(=O)N[C@@H](CCCNC(=N)N)C(=O)N[C@@H](CCCNC(N)=O)C(=O)N2) [Example 78]
3.5		cyclo(YRECRG[dP]RR[2Nal]CYQK[dP]P) (disulfide 4-11; SMILES N=C(N)NCCC[C@@H]1NC(=O)[C@@H]2CSSC[C@H](NC(=O)[C@H](Cc3ccc4ccccc4c3)NC(=O)[C@H](CCCNC(=N)N)NC(=O)[C@H](CCCNC(=N)N)NC(=O)[C@H]3CCCN3C(=O)CNC1=O)C(=O)N[C@@H](Cc1ccc(O)cc1)C(=O)N[C@@H](CCC(N)=O)C(=O)N[C@@H](CCCCN)C(=O)N1CCC[C@@H]1C(=O)N1CCC[C@H]1C(=O)N[C@@H](Cc1ccc(O)cc1)C(=O)N[C@@H](CCCNC(=N)N)C(=O)N[C@@H](CCC(=O)O)C(=O)N2) [Example 75]
4.9		cyclo(YR[Cit]CRG[dP]RR[2Nal]CYSK[dP]P) (disulfide 4-11; SMILES N=C(N)NCCC[C@@H]1NC(=O)[C@@H]2CSSC[C@H](NC(=O)[C@H](Cc3ccc4ccccc4c3)NC(=O)[C@H](CCCNC(=N)N)NC(=O)[C@H](CCCNC(=N)N)NC(=O)[C@H]3CCCN3C(=O)CNC1=O)C(=O)N[C@@H](Cc1ccc(O)cc1)C(=O)N[C@@H](CO)C(=O)N[C@@H](CCCCN)C(=O)N1CCC[C@@H]1C(=O)N1CCC[C@H]1C(=O)N[C@@H](Cc1ccc(O)cc1)C(=O)N[C@@H](CCCNC(=N)N)C(=O)N[C@@H](CCCNC(N)=O)C(=O)N2) [Example 81]
	1930	cyclo(YR[Cit]VRRR[2Nal]VY[Cit]K[dP]P) (SMILES CC(C)[C@@H]1NC(=O)[C@H](CCCNC(N)=O)NC(=O)[C@H](CCCNC(=N)N)NC(=O)[C@H](Cc2ccc(O)cc2)NC(=O)[C@@H]2CCCN2C(=O)[C@H]2CCCN2C(=O)[C@H](CCCCN)NC(=O)[C@H](CCCNC(N)=O)NC(=O)[C@H](Cc2ccc(O)cc2)NC(=O)[C@H](C(C)C)NC(=O)[C@H](Cc2ccc3ccccc3c2)NC(=O)[C@H](CCCNC(=N)N)NC(=O)[C@H](CCCNC(=N)N)NC(=O)[C@H](CCCNC(=N)N)NC1=O) [Example 6]
5.6		cyclo(YR[Cit]CRG[dP][Phe(4-F)]R[2Nal]CYQK[dP]P) (disulfide 4-11; SMILES N=C(N)NCCC[C@@H]1NC(=O)[C@@H]2CSSC[C@H](NC(=O)[C@H](Cc3ccc4ccccc4c3)NC(=O)[C@H](CCCNC(=N)N)NC(=O)[C@H](Cc3ccc(F)cc3)NC(=O)[C@H]3CCCN3C(=O)CNC1=O)C(=O)N[C@@H](Cc1ccc(O)cc1)C(=O)N[C@@H](CCC(N)=O)C(=O)N[C@@H](CCCCN)C(=O)N1CCC[C@@H]1C(=O)N1CCC[C@H]1C(=O)N[C@@H](Cc1ccc(O)cc1)C(=O)N[C@@H](CCCNC(=N)N)C(=O)N[C@@H](CCCNC(N)=O)C(=O)N2) [Example 76]
4.8		cyclo(YR[Cit]CRG[dP]RR[2Nal]CYLK[dP]P) (disulfide 4-11; SMILES CC(C)C[C@@H]1NC(=O)[C@H](Cc2ccc(O)cc2)NC(=O)[C@@H]2CSSC[C@H](NC(=O)[C@H](CCCNC(N)=O)NC(=O)[C@H](CCCNC(=N)N)NC(=O)[C@H](Cc3ccc(O)cc3)NC(=O)[C@@H]3CCCN3C(=O)[C@H]3CCCN3C(=O)[C@H](CCCCN)NC1=O)C(=O)N[C@@H](CCCNC(=N)N)C(=O)NCC(=O)N1CCC[C@@H]1C(=O)N[C@@H](CCCNC(=N)N)C(=O)N[C@@H](CCCNC(=N)N)C(=O)N[C@@H](Cc1ccc3ccccc3c1)C(=O)N2) [Example 82]
3.7		cyclo(YR[Cit]CRG[dP]RR[2Nal]CYMK[dP]P) (disulfide 4-11; SMILES CSCC[C@@H]1NC(=O)[C@H](Cc2ccc(O)cc2)NC(=O)[C@@H]2CSSC[C@H](NC(=O)[C@H](CCCNC(N)=O)NC(=O)[C@H](CCCNC(=N)N)NC(=O)[C@H](Cc3ccc(O)cc3)NC(=O)[C@@H]3CCCN3C(=O)[C@H]3CCCN3C(=O)[C@H](CCCCN)NC1=O)C(=O)N[C@@H](CCCNC(=N)N)C(=O)NCC(=O)N1CCC[C@@H]1C(=O)N[C@@H](CCCNC(=N)N)C(=O)N[C@@H](CCCNC(=N)N)C(=O)N[C@@H](Cc1ccc3ccccc3c1)C(=O)N2) [Example 83]
	2540	cyclo(YR[Cit]VRRR[2Nal]FY[Cit]K[dP]P) (SMILES CC(C)[C@@H]1NC(=O)[C@H](CCCNC(N)=O)NC(=O)[C@H](CCCNC(=N)N)NC(=O)[C@H](Cc2ccc(O)cc2)NC(=O)[C@@H]2CCCN2C(=O)[C@H]2CCCN2C(=O)[C@H](CCCCN)NC(=O)[C@H](CCCNC(N)=O)NC(=O)[C@H](Cc2ccc(O)cc2)NC(=O)[C@H](Cc2ccccc2)NC(=O)[C@H](Cc2ccc3ccccc3c2)NC(=O)[C@H](CCCNC(=N)N)NC(=O)[C@H](CCCNC(=N)N)NC(=O)[C@H](CCCNC(=N)N)NC1=O) [Example 4]
8.8		cyclo(YRWCRG[dP]RR[2Nal]CYQK[dP]P) (disulfide 4-11; SMILES N=C(N)NCCC[C@@H]1NC(=O)[C@@H]2CSSC[C@H](NC(=O)[C@H](Cc3ccc4ccccc4c3)NC(=O)[C@H](CCCNC(=N)N)NC(=O)[C@H](CCCNC(=N)N)NC(=O)[C@H]3CCCN3C(=O)CNC1=O)C(=O)N[C@@H](Cc1ccc(O)cc1)C(=O)N[C@@H](CCC(N)=O)C(=O)N[C@@H](CCCCN)C(=O)N1CCC[C@@H]1C(=O)N1CCC[C@H]1C(=O)N[C@@H](Cc1ccc(O)cc1)C(=O)N[C@@H](CCCNC(=N)N)C(=O)N[C@@H](Cc1c[nH]c3ccccc13)C(=O)N2) [Example 73]
3.9		cyclo(YR[Cit]CRG[dP]RR[2Nal]CYQN[dP]P) (disulfide 4-11; SMILES N=C(N)NCCC[C@@H]1NC(=O)[C@@H]2CSSC[C@H](NC(=O)[C@H](Cc3ccc4ccccc4c3)NC(=O)[C@H](CCCNC(=N)N)NC(=O)[C@H](CCCNC(=N)N)NC(=O)[C@H]3CCCN3C(=O)CNC1=O)C(=O)N[C@@H](Cc1ccc(O)cc1)C(=O)N[C@@H](CCC(N)=O)C(=O)N[C@@H](CC(N)=O)C(=O)N1CCC[C@@H]1C(=O)N1CCC[C@H]1C(=O)N[C@@H](Cc1ccc(O)cc1)C(=O)N[C@@H](CCCNC(=N)N)C(=O)N[C@@H](CCCNC(N)=O)C(=O)N2) [Example 84]
7		cyclo(YR[Cit]CRG[dP]RR[2Nal]CYNK[dP]P) (disulfide 4-11; SMILES N=C(N)NCCC[C@@H]1NC(=O)[C@@H]2CSSC[C@H](NC(=O)[C@H](Cc3ccc4ccccc4c3)NC(=O)[C@H](CCCNC(=N)N)NC(=O)[C@H](CCCNC(=N)N)NC(=O)[C@H]3CCCN3C(=O)CNC1=O)C(=O)N[C@@H](Cc1ccc(O)cc1)C(=O)N[C@@H](CC(N)=O)C(=O)N[C@@H](CCCCN)C(=O)N1CCC[C@@H]1C(=O)N1CCC[C@H]1C(=O)N[C@@H](Cc1ccc(O)cc1)C(=O)N[C@@H](CCCNC(=N)N)C(=O)N[C@@H](CCCNC(N)=O)C(=O)N2) [Example 77]
2.4		cyclo(YR[Cit]CRG[dP]RR[2Nal]CYKK[dP]P) (disulfide 4-11; SMILES N=C(N)NCCC[C@@H]1NC(=O)[C@@H]2CSSC[C@H](NC(=O)[C@H](Cc3ccc4ccccc4c3)NC(=O)[C@H](CCCNC(=N)N)NC(=O)[C@H](CCCNC(=N)N)NC(=O)[C@H]3CCCN3C(=O)CNC1=O)C(=O)N[C@@H](Cc1ccc(O)cc1)C(=O)N[C@@H](CCCCN)C(=O)N[C@@H](CCCCN)C(=O)N1CCC[C@@H]1C(=O)N1CCC[C@H]1C(=O)N[C@@H](Cc1ccc(O)cc1)C(=O)N[C@@H](CCCNC(=N)N)C(=O)N[C@@H](CCCNC(N)=O)C(=O)N2) [Example 79]
19.5		cyclo(YRPCRG[dP]RR[2Nal]CYQK[dP]P) (disulfide 4-11; SMILES N=C(N)NCCC[C@@H]1NC(=O)[C@@H]2CSSC[C@H](NC(=O)[C@H](Cc3ccc4ccccc4c3)NC(=O)[C@H](CCCNC(=N)N)NC(=O)[C@H](CCCNC(=N)N)NC(=O)[C@H]3CCCN3C(=O)CNC1=O)C(=O)N[C@@H](Cc1ccc(O)cc1)C(=O)N[C@@H](CCC(N)=O)C(=O)N[C@@H](CCCCN)C(=O)N1CCC[C@@H]1C(=O)N1CCC[C@H]1C(=O)N[C@@H](Cc1ccc(O)cc1)C(=O)N[C@@H](CCCNC(=N)N)C(=O)N1CCC[C@H]1C(=O)N2) [Example 74]
2.9		cyclo(YR[Cit]CRG[dP]RR[2Nal]CYAK[dP]P) (disulfide 4-11; SMILES C[C@@H]1NC(=O)[C@H](Cc2ccc(O)cc2)NC(=O)[C@@H]2CSSC[C@H](NC(=O)[C@H](CCCNC(N)=O)NC(=O)[C@H](CCCNC(=N)N)NC(=O)[C@H](Cc3ccc(O)cc3)NC(=O)[C@@H]3CCCN3C(=O)[C@H]3CCCN3C(=O)[C@H](CCCCN)NC1=O)C(=O)N[C@@H](CCCNC(=N)N)C(=O)NCC(=O)N1CCC[C@@H]1C(=O)N[C@@H](CCCNC(=N)N)C(=O)N[C@@H](CCCNC(=N)N)C(=O)N[C@@H](Cc1ccc3ccccc3c1)C(=O)N2) [Example 80]
